Measured values reported in paper PMC12994607, “Screening pertactin-specific antibodies and evaluating competitive epitope recognition by native mass spectrometry” (Chemical Science, 2026).

Biological target: T1, ΔC-term Prn variant (Bordetella pertussis, strain  …, point mutant)
T1 construct: Pertactin (Prn) of Bordetella pertussis, mature passenger domain from which 64 residues at the C-terminus (with the R2 repeat region; unstructured in the X-ray structure) were truncated; also called ΔC-terminal
T1 chain: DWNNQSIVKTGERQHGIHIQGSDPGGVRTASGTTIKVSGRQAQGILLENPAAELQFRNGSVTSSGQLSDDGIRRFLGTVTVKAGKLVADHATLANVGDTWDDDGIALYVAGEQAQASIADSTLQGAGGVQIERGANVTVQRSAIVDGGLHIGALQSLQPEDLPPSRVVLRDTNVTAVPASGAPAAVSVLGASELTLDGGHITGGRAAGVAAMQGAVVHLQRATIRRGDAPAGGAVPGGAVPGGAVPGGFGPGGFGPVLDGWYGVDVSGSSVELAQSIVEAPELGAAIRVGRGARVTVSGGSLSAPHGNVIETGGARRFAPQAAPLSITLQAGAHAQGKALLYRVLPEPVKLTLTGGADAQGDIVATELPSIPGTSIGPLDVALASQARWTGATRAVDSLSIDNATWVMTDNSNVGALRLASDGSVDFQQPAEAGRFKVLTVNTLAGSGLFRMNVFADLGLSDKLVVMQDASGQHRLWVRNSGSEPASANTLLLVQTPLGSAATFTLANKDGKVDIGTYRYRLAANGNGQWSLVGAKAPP
Assay: native MS; 2 µM mAb and 2 µM Prn or Prn variant (equimolar), 250 mM ammonium acetate with 0.06% C10E5, 1 hour at room temperature, nano-ESI on Q Exactive UHMR
Conditions: both partners purified

Binder	binding result
PeM-19 monoclonal antibody (R2-specific) (antibody, V domains shown, variable region of PeM-19; mouse IgG2a heavy chain constant domains; mouse light chain constant domain; the methods describe the IgG2a format for the anti-pertactin antibodies in general; also called PeM-19 Ab; source: ExpiCHO-S, transfected, purified (Protein A); copies: 2 + 2) VH: EVQLQQSGPELVKPGASVKIPCKASGYTFTDYNMDWVKQSHGKSLEWIGDINPNTGETIYNQKFEGKASLTVDKSSNTVYMELRSLTSEDTAVYYCARVPFYFDYWGQGTTLTVSR VL: DIVMSQSPSSLTVSVGEKVTMSCKSSQSLLYSRDQKNYLAWYQQKPGQSPKMLIHWASTRASGVPDRFTGSGSGTDFTLTISSVKAEDLAVYYCQQYYFYPRTFGGGTKLELK	no binding (tested: 2 µM each)

Biological target: T2, Mature Pertactin (Prn) (Bordetella pertussis, strain  …)
T2 construct: pertactin (Prn) of Bordetella pertussis, mature passenger domain; the legend on D1:p9 names 1DAB instead; also called wild-type Prn; wild type Prn
T2 chain: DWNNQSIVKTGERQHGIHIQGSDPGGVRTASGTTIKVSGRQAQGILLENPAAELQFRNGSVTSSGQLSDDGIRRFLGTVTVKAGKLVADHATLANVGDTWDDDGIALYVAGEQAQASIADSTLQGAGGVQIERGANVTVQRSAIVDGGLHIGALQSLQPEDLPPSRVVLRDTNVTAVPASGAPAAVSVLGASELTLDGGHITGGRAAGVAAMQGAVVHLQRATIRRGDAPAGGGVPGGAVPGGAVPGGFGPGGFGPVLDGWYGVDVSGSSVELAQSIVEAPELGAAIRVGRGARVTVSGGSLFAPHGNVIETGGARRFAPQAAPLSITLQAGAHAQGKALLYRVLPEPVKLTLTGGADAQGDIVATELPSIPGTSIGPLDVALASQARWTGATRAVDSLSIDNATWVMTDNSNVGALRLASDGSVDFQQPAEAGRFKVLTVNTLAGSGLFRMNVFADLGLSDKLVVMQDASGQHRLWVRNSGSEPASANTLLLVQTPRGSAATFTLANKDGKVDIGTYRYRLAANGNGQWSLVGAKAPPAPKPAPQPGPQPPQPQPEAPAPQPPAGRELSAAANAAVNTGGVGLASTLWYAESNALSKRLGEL
Assay: BLI; mAb (10 nM) loaded on anti-mouse IgG Fc (AMC) biosensors, dipped into Prn at 50, 25, 12.5, 6.25, 3.125 and 1.56 nM; kinetic buffer (HEPES buffer with 0.01% BSA and 0.002% Tween-20); Octet Red96; 1:1 binding model, global fit, single replicate
Conditions: both partners purified

Binder	Kd [nM]
2E9 monoclonal antibody (antibody, V domains shown, 2E9 HC, whole heavy chain as printed: variable region with mouse IgG2a constant domains; 2E9 LC, whole light chain as printed; full-length mouse IgG2a; measured mass 147,603 Da; also called 2E9 mAb; 2E9 Ab; source: ExpiCHO-S, transfected, purified (HiTrap Protein A); copies: 2 + 2) VH: QVQLQQSGPELVKPGASVKMSCKASGYTFTSNYIHWMKQRPGQGLEWIGWIYPGDGSSKYNEKFKGKTTLTADRSSSTAYMLLSSLTSEDSAIYFCANYFYAMDQWGQGTSVTVSR VL: IVLTQSHKFMSTSVGDRVSITCKASQDVSTAVAWYQQKPGQSPKLLIYWASTRHTGVPDRFTGSGSGTDYTLTISSVQAEDLALYYCQQHYSTPWTFGGGTKLEIK	< 1
1F2 monoclonal antibody (antibody, V domains shown, 1F2 HC, whole heavy chain as printed: variable region with mouse IgG2a constant domains; 1F2 LC, whole light chain as printed; full-length mouse IgG2a; measured mass 148,317 Da; also called 1F2 mAb; 1F2 Ab; source: ExpiCHO-S, transfected, purified (HiTrap Protein A); copies: 2 + 2) VH: EVQLVESGGGLVKPGESLKLSCAASGFTFNSYTMSWVRQTPEKRLEWVATISSGGSYTYYPDSVKGRFTISRDNAKNTLYLQMSSLKSEDTAMYYCIRVGGLFDYWGQGTTLTVSR VL: IQMIQSHKFMSTSVGDRVSITCKASQDVSTAVAWYQQKPGQSPKLLIYWASTRHTGVPDRFTGSGSGTDFTLTISGVQAEDLALYYCQQHYTTPWTFGGGTKLEIK	< 1
2B1 monoclonal antibody (antibody, V domains shown, 2B1 HC, whole heavy chain as printed: variable region with mouse IgG2a constant domains; 2B1 LC, whole light chain as printed; full-length mouse IgG2a; measured mass 149,064 Da; also called 2B1 mAb; 2B1 Ab; source: ExpiCHO-S, transfected, purified (HiTrap Protein A); copies: 2 + 2) VH: QVQLQQSGPELVKPGASVKISCKASGYSFTDYNMYWVKQSHGKSLEWIGYFDPYNGGIYYNQNFKGRATLTVDKSSSTAFMHLNSLTSEDSAVYYCARGGGWFRGFTYWGQGTLVTVSR VL: IQMTQSTSSLSASLGDRVTISCRASQDISNYLNWYQQKPDGTLNLLIYYTSRLHSGVPSRFSGSGSGTDYSLTISNLEQEDIATYFCQQGNTLPYTFGGGTKLEIK	< 1
1E7 monoclonal antibody (antibody, V domains shown, 1E7 HC, whole heavy chain as printed: variable region with mouse IgG2a constant domains; a predicted N-linked glycosylation site (NPS) in CDR2 is highlighted; 1E7 LC, whole light chain as printed; full-length mouse IgG2a; measured mass 149,106 Da; also called 1E7 mAb; 1E7 Ab; source: ExpiCHO-S, transfected, purified (HiTrap Protein A); copies: 2 + 2) VH: QVQLQQPAAELARPGASVKMSCRASGYTFTTYTMHWVKQRPGQGLEWIGYINPSSGYTDYNQKFRDKITLTADKSSSTAYMQLSSLTSGDSAVYYCAREDYYGQGFTYWGQGTLVTVSR VL: IVMTQSTSSLSASLGDRVTISCRASQDISNYLNWYQQKPDGTVKLLIYYTSRLHSGVPSRFSGSGSGTDYSLTISNLEQEDIATYFCQQGNMFPWTFGGGTKLELK	< 1

Biological target: T3, mature pertactin (Prn), wild type (Bordetella pertussis, strain  …)
T3 construct: Pertactin (Prn) of Bordetella pertussis, mature N-terminal passenger domain (63 kDa), cut from the precursor; Kept in 0.06% C10E5 detergent for native MS; also called Prn antigen; wild-type Prn
T3 chain: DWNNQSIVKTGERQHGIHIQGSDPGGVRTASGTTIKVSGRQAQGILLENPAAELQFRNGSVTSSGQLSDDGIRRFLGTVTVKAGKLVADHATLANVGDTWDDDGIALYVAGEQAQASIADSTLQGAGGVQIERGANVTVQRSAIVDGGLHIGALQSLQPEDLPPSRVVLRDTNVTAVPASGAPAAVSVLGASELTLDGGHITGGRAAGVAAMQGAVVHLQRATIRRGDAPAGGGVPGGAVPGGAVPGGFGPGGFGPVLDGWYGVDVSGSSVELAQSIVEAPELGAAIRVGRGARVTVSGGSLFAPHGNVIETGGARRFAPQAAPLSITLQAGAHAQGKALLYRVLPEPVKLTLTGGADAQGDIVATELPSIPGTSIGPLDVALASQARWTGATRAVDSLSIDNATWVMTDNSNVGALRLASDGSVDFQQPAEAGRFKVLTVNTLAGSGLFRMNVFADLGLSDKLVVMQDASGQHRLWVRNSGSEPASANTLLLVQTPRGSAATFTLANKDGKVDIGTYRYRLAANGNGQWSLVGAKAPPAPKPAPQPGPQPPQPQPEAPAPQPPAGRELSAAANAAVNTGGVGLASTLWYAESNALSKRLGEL
Assay: native MS; titration: fixed 2 µM mAb, Prn 0.5 µM to 8 µM, 250 mM ammonium acetate with 0.06% C10E5
Conditions: both partners purified

Binder	stoichiometry N [Prn per mAb]
2E9 monoclonal antibody (antibody, V domains shown, variable region of 2E9; mouse IgG2a heavy chain constant domains; mouse light chain constant domain; Full-length mouse IgG2a; also called 2E9 mAb; source: ExpiCHO-S, transfected, purified (Protein A); copies: 2 + 2) VH: QVQLQQSGPELVKPGASVKMSCKASGYTFTSNYIHWMKQRPGQGLEWIGWIYPGDGSSKYNEKFKGKTTLTADRSSSTAYMLLSSLTSEDSAIYFCANYFYAMDQWGQGTSVTVSR VL: IVLTQSHKFMSTSVGDRVSITCKASQDVSTAVAWYQQKPGQSPKLLIYWASTRHTGVPDRFTGSGSGTDYTLTISSVQAEDLALYYCQQHYSTPWTFGGGTKLEIK	2
1F2 monoclonal antibody (antibody, V domains shown, variable region of 1F2; mouse IgG2a heavy chain constant domains; mouse light chain constant domain; Full-length mouse IgG2a; also called 1F2 antibody; source: ExpiCHO-S, transfected, purified (Protein A); copies: 2 + 2) VH: EVQLVESGGGLVKPGESLKLSCAASGFTFNSYTMSWVRQTPEKRLEWVATISSGGSYTYYPDSVKGRFTISRDNAKNTLYLQMSSLKSEDTAMYYCIRVGGLFDYWGQGTTLTVSR VL: IQMIQSHKFMSTSVGDRVSITCKASQDVSTAVAWYQQKPGQSPKLLIYWASTRHTGVPDRFTGSGSGTDFTLTISGVQAEDLALYYCQQHYTTPWTFGGGTKLEIK	2
2B1 monoclonal antibody (antibody, V domains shown, variable region of 2B1; mouse IgG2a heavy chain constant domains; mouse light chain constant domain; Full-length mouse IgG2a; source: ExpiCHO-S, transfected, purified (Protein A); copies: 2 + 2) VH: QVQLQQSGPELVKPGASVKISCKASGYSFTDYNMYWVKQSHGKSLEWIGYFDPYNGGIYYNQNFKGRATLTVDKSSSTAFMHLNSLTSEDSAVYYCARGGGWFRGFTYWGQGTLVTVSR VL: IQMTQSTSSLSASLGDRVTISCRASQDISNYLNWYQQKPDGTLNLLIYYTSRLHSGVPSRFSGSGSGTDYSLTISNLEQEDIATYFCQQGNTLPYTFGGGTKLEIK	2
1E7 monoclonal antibody (antibody, V domains shown, variable region of 1E7; mouse IgG2a heavy chain constant domains; mouse light chain constant domain; Full-length mouse IgG2a; source: ExpiCHO-S, transfected, purified (Protein A); copies: 2 + 2) VH: QVQLQQPAAELARPGASVKMSCRASGYTFTTYTMHWVKQRPGQGLEWIGYINPSSGYTDYNQKFRDKITLTADKSSSTAYMQLSSLTSGDSAVYYCAREDYYGQGFTYWGQGTLVTVSR VL: IVMTQSTSSLSASLGDRVTISCRASQDISNYLNWYQQKPDGTVKLLIYYTSRLHSGVPSRFSGSGSGTDYSLTISNLEQEDIATYFCQQGNMFPWTFGGGTKLELK	2
